Target: recombinant SARS-CoV-2 spike RBD, WH-1 (Sino Biological 40592-V08B) (SARS-CoV-2 (wild type, WH-1)) (UniProt P0DTC2)
Assay: SPR (Biacore T200), minibinder immobilised, monomeric RBD as analyte

Row | Substance | Kd | fold higher affinity than AHB2
1 | recombinant minibinder AHB2 with N- and C-terminal Ser/Gly extensions and C-terminal Cys (designed binder) | 0.05 nM | 
2 | recombinant minibinder LCB1 with N- and C-terminal Ser/Gly extensions and C-terminal Cys (designed binder) | 0.005 nM | 10 fold
